Measured values as given in patent US20150203577A1 (Chugai, published 2015).
Each block holds one binder with its values, some of them ahead of it.

Assays:
[1] = target: T1, mouse FcγRII extracellular domain, C-terminal His tag (mouse, UniProt P08101 30-210); assay: SPR (Biacore T200), antibody captured on Protein L, mFcγR analyte
T1 construct: also called mFcγRII; mFcgRII
T1 sequence: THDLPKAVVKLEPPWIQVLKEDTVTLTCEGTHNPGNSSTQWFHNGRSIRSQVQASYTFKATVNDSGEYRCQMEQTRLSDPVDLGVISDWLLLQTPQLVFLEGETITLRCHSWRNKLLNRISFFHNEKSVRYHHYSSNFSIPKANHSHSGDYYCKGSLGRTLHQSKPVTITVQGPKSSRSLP

[2] = target: T2, mouse FcγRIII extracellular domain, C-terminal His tag (mouse, UniProt P08508 31-215); assay: as above
T2 construct: also called mFcγRIII; mFcgRIII
T2 chain: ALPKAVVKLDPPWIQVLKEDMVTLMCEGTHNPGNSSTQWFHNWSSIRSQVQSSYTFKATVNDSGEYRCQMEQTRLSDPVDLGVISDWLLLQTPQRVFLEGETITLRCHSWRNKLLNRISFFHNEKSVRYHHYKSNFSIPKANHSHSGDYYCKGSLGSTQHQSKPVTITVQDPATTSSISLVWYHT

B1: H237-MB848/MRAL-k0 (antibody, mouse IgG1, kappa)
heavy: QVQLQESGPGLVKPSETLSLTCAVSGHSISHDHAWSWVRQPPGEGLEWIGFISYSGITNYNPSLQGRVTISRDNSKNTLYLQMNSLRAEDTAVYYCARSLARTTAMDYWGEGTLVTVSSAKTTPPSVYPLAPGSAAQTNSMVTLGCLVKGYFPEPVTVTWNSGSLSSGVHTFPAVLQSDLYTLSSSVTVPSSTWPSETVTCNVAHPASSTKVDKKIVPRDCGCKPCICEPNEVELVFIFPPKPKDVLTITLTPKVTCVVVDISKDDPEVQFSWFVDDVEVHTAQTQPREEQFNSTFRSVSELPIMHQDWLNGKEFKCRVDSDGFPAPIEKTISKTKGRPKAPQVYTIPPPKEQMAKDKVSLTCMITDFFPEDITVEWQWNGQPAENYKNTQPIMDTDGSYFVYSKLNVQKSNWEAGNTFTCSVLHEGLHNHHTEKSLSHSPGK
light: not shown
notes: copies: 2 + 2
Kd [1]: 4.58 nM
relative mFcγRII-binding activity (mIgG1 = 1) [1]: 45.8 fold vs H237-mIgG1/MRAL-k0
Kd [2]: 308 nM
relative mFcγRIII-binding activity (mIgG1 = 1) [2]: 0.9 fold vs H237-mIgG1/MRAL-k0

B2: H237-MB851/MRAL-k0 (antibody, mouse IgG1, kappa)
heavy: QVQLQESGPGLVKPSETLSLTCAVSGHSISHDHAWSWVRQPPGEGLEWIGFISYSGITNYNPSLQGRVTISRDNSKNTLYLQMNSLRAEDTAVYYCARSLARTTAMDYWGEGTLVTVSSAKTTPPSVYPLAPGSAAQTNSMVTLGCLVKGYFPEPVTVTWNSGSLSSGVHTFPAVLQSDLYTLSSSVTVPSSTWPSETVTCNVAHPASSTKVDKKIVPRDCGCKPCICEPNEVELVFIFPPKPKDVLTITLTPKVTCVVVDISKDDPEVQFSWFVDDVEVHTAQTQPREEQFNSTFRSVSELPIMHQDWLNGKEFKCRVNSDGFPAPIERTISKTKGRPKAPQVYTIPPPKEQMAKDKVSLTCMITDFFPEDITVEWQWNGQPAENYKNTQPIMDTDGSYFVYSKLNVQKSNWEAGNTFTCSVLHEGLHNHHTEKSLSHSPGK
light: not shown
notes: copies: 2 + 2
Kd [1]: 4.79 nM
relative mFcγRII-binding activity (mIgG1 = 1) [1]: 43.8 fold vs H237-mIgG1/MRAL-k0
Kd [2]: 295 nM
relative mFcγRIII-binding activity (mIgG1 = 1) [2]: 1 fold vs H237-mIgG1/MRAL-k0

B5: H237-MB849/MRAL-k0 (antibody, mouse IgG1, kappa)
heavy: QVQLQESGPGLVKPSETLSLTCAVSGHSISHDHAWSWVRQPPGEGLEWIGFISYSGITNYNPSLQGRVTISRDNSKNTLYLQMNSLRAEDTAVYYCARSLARTTAMDYWGEGTLVTVSSAKTTPPSVYPLAPGSAAQTNSMVTLGCLVKGYFPEPVTVTWNSGSLSSGVHTFPAVLQSDLYTLSSSVTVPSSTWPSETVTCNVAHPASSTKVDKKIVPRDCGCKPCICEPNEVELVFIFPPKPKDVLTITLTPKVTCVVVDISKDDPEVQFSWFVDDVEVHTAQTQPREEQFNSTFRSVSELPIMHQDWLNGKEFKCRVNSDGFPAYIEKTISKTKGRPKAPQVYTIPPPKEQMAKDKVSLTCMITDFFPEDITVEWQWNGQPAENYKNTQPIMDTDGSYFVYSKLNVQKSNWEAGNTFTCSVLHEGLHNHHTEKSLSHSPGK
light: not shown
notes: copies: 2 + 2
Kd [1]: 6.68 nM
relative mFcγRII-binding activity (mIgG1 = 1) [1]: 31.4 fold vs H237-mIgG1/MRAL-k0
Kd [2]: 436 nM
relative mFcγRIII-binding activity (mIgG1 = 1) [2]: 0.6 fold vs H237-mIgG1/MRAL-k0

B8: H237-MB852/MRAL-k0 (antibody, mouse IgG1, kappa)
heavy: QVQLQESGPGLVKPSETLSLTCAVSGHSISHDHAWSWVRQPPGEGLEWIGFISYSGITNYNPSLQGRVTISRDNSKNTLYLQMNSLRAEDTAVYYCARSLARTTAMDYWGEGTLVTVSSAKTTPPSVYPLAPGSAAQTNSMVTLGCLVKGYFPEPVTVTWNSGSLSSGVHTFPAVLQSDLYTLSSSVTVPSSTWPSETVTCNVAHPASSTKVDKKIVPRDCGCKPCICEPNEVELVFIFPPKPKDVLTITLTPKVTCVVVDISKDDPEVQFSWFVDDVEVHTAQTQPREELFNSTFRSVSELPIMHQDWLNGKEFKCRVDSDGFPAPIEKTISKTKGRPKAPQVYTIPPPKEQMAKDKVSLTCMITDFFPEDITVEWQWNGQPAENYKNTQPIMDTDGSYFVYSKLNVQKSNWEAGNTFTCSVLHEGLHNHHTEKSLSHSPGK
light: not shown
notes: copies: 2 + 2
Kd [1]: 3.44 nM
relative mFcγRII-binding activity (mIgG1 = 1) [1]: 61 fold vs H237-mIgG1/MRAL-k0
Kd [2]: 154 nM
relative mFcγRIII-binding activity (mIgG1 = 1) [2]: 1.8 fold vs H237-mIgG1/MRAL-k0

B10: H237-MB850/MRAL-k0 (antibody, mouse IgG1, kappa)
heavy: QVQLQESGPGLVKPSETLSLTCAVSGHSISHDHAWSWVRQPPGEGLEWIGFISYSGITNYNPSLQGRVTISRDNSKNTLYLQMNSLRAEDTAVYYCARSLARTTAMDYWGEGTLVTVSSAKTTPPSVYPLAPGSAAQTNSMVTLGCLVKGYFPEPVTVTWNSGSLSSGVHTFPAVLQSDLYTLSSSVTVPSSTWPSETVTCNVAHPASSTKVDKKIVPRDCGCKPCICEPNEVELVFIFPPKPKDVLTITLTPKVTCVVVDISKDDPEVQFSWFVDDVEVHTAQTQPREEQFNSTFRSVSELPIMHQDWLNGKEFKCRVNSDGFPAPIYKTISKTKGRPKAPQVYTIPPPKEQMAKDKVSLTCMITDFFPEDITVEWQWNGQPAENYKNTQPIMDTDGSYFVYSKLNVQKSNWEAGNTFTCSVLHEGLHNHHTEKSLSHSPGK
light: not shown
notes: copies: 2 + 2
Kd [1]: 4.81 nM
relative mFcγRII-binding activity (mIgG1 = 1) [1]: 43.7 fold vs H237-mIgG1/MRAL-k0
Kd [2]: 358 nM
relative mFcγRIII-binding activity (mIgG1 = 1) [2]: 0.8 fold vs H237-mIgG1/MRAL-k0

The remaining lines, values ahead:

Kd [1]: 3.39 nM
relative mFcγRII-binding activity (mIgG1 = 1) [1]: 62 fold vs H237-mIgG1/MRAL-k0
Kd [2]: 223 nM
relative mFcγRIII-binding activity (mIgG1 = 1) [2]: 1.3 fold vs H237-mIgG1/MRAL-k0
B3: H237-MB858/MRAL-k0 (antibody, mouse IgG1, kappa)
heavy: QVQLQESGPGLVKPSETLSLTCAVSGHSISHDHAWSWVRQPPGEGLEWIGFISYSGITNYNPSLQGRVTISRDNSKNTLYLQMNSLRAEDTAVYYCARSLARTTAMDYWGEGTLVTVSSAKTTPPSVYPLAPGSAAQTNSMVTLGCLVKGYFPEPVTVTWNSGSLSSGVHTFPAVLQSDLYTLSSSVTVPSSTWPSETVTCNVAHPASSTKVDKKIVPRDCGCKPCICEPNEVELVFIFPPKPKDVLTITLTPKVTCVVVDISKDDPEVQFSWFVDDVEVHTAQTQPREEQFNSTFRSVSELPIMHQDWLNGKEFKCRVDSDGFPAPIERTISKTKGRPKAPQVYTIPPPKEQMAKDKVSLTCMITDFFPEDITVEWQWNGQPAENYKNTQPIMDTDGSYFVYSKLNVQKSNWEAGNTFTCSVLHEGLHNHHTEKSLSHSPGK
light: not shown
notes: copies: 2 + 2

Kd [1]: 4.69 nM
relative mFcγRII-binding activity (mIgG1 = 1) [1]: 44.8 fold vs H237-mIgG1/MRAL-k0
Kd [2]: 311 nM
relative mFcγRIII-binding activity (mIgG1 = 1) [2]: 0.9 fold vs H237-mIgG1/MRAL-k0
B4: H237-MB856/MRAL-k0 (antibody, mouse IgG1, kappa)
heavy: QVQLQESGPGLVKPSETLSLTCAVSGHSISHDHAWSWVRQPPGEGLEWIGFISYSGITNYNPSLQGRVTISRDNSKNTLYLQMNSLRAEDTAVYYCARSLARTTAMDYWGEGTLVTVSSAKTTPPSVYPLAPGSAAQTNSMVTLGCLVKGYFPEPVTVTWNSGSLSSGVHTFPAVLQSDLYTLSSSVTVPSSTWPSETVTCNVAHPASSTKVDKKIVPRDCGCKPCICEPNEVELVFIFPPKPKDVLTITLTPKVTCVVVDISKDDPEVQFSWFVDDVEVHTAQTQPREEQFNSTFRSVSELPIMHQDWLNGKEFKCRVDSDGFPAYIEKTISKTKGRPKAPQVYTIPPPKEQMAKDKVSLTCMITDFFPEDITVEWQWNGQPAENYKNTQPIMDTDGSYFVYSKLNVQKSNWEAGNTFTCSVLHEGLHNHHTEKSLSHSPGK
light: not shown
notes: copies: 2 + 2

Kd [1]: 4.15 nM
relative mFcγRII-binding activity (mIgG1 = 1) [1]: 50.6 fold vs H237-mIgG1/MRAL-k0
Kd [2]: 225 nM
relative mFcγRIII-binding activity (mIgG1 = 1) [2]: 1.3 fold vs H237-mIgG1/MRAL-k0
B6: H237-MB854/MRAL-k0 (antibody, mouse IgG1, kappa)
heavy: QVQLQESGPGLVKPSETLSLTCAVSGHSISHDHAWSWVRQPPGEGLEWIGFISYSGITNYNPSLQGRVTISRDNSKNTLYLQMNSLRAEDTAVYYCARSLARTTAMDYWGEGTLVTVSSAKTTPPSVYPLAPGSAAQTNSMVTLGCLVKGYFPEPVTVTWNSGSLSSGVHTFPAVLQSDLYTLSSSVTVPSSTWPSETVTCNVAHPASSTKVDKKIVPRDCGCKPCICEPNEVELVFIFPPKPKDVLTITLTPKVTCVVVDISKDDPEVQFSWFVDDVEVHTAQTQPREELFNSTFRSVSELPIMHQDWLNGKEFKCRVNSDGFPAPIYKTISKTKGRPKAPQVYTIPPPKEQMAKDKVSLTCMITDFFPEDITVEWQWNGQPAENYKNTQPIMDTDGSYFVYSKLNVQKSNWEAGNTFTCSVLHEGLHNHHTEKSLSHSPGK
light: not shown
notes: copies: 2 + 2

Kd [1]: 4.71 nM
relative mFcγRII-binding activity (mIgG1 = 1) [1]: 44.6 fold vs H237-mIgG1/MRAL-k0
Kd [2]: 313 nM
relative mFcγRIII-binding activity (mIgG1 = 1) [2]: 0.9 fold vs H237-mIgG1/MRAL-k0
B7: H237-MB857/MRAL-k0 (antibody, mouse IgG1, kappa)
heavy: QVQLQESGPGLVKPSETLSLTCAVSGHSISHDHAWSWVRQPPGEGLEWIGFISYSGITNYNPSLQGRVTISRDNSKNTLYLQMNSLRAEDTAVYYCARSLARTTAMDYWGEGTLVTVSSAKTTPPSVYPLAPGSAAQTNSMVTLGCLVKGYFPEPVTVTWNSGSLSSGVHTFPAVLQSDLYTLSSSVTVPSSTWPSETVTCNVAHPASSTKVDKKIVPRDCGCKPCICEPNEVELVFIFPPKPKDVLTITLTPKVTCVVVDISKDDPEVQFSWFVDDVEVHTAQTQPREEQFNSTFRSVSELPIMHQDWLNGKEFKCRVDSDGFPAPIYKTISKTKGRPKAPQVYTIPPPKEQMAKDKVSLTCMITDFFPEDITVEWQWNGQPAENYKNTQPIMDTDGSYFVYSKLNVQKSNWEAGNTFTCSVLHEGLHNHHTEKSLSHSPGK
light: not shown
notes: copies: 2 + 2

Kd [1]: 6.15 nM
relative mFcγRII-binding activity (mIgG1 = 1) [1]: 34.2 fold vs H237-mIgG1/MRAL-k0
Kd [2]: 396 nM
relative mFcγRIII-binding activity (mIgG1 = 1) [2]: 0.7 fold vs H237-mIgG1/MRAL-k0
B9: H237-MB859/MRAL-k0 (antibody, mouse IgG1, kappa)
heavy: QVQLQESGPGLVKPSETLSLTCAVSGHSISHDHAWSWVRQPPGEGLEWIGFISYSGITNYNPSLQGRVTISRDNSKNTLYLQMNSLRAEDTAVYYCARSLARTTAMDYWGEGTLVTVSSAKTTPPSVYPLAPGSAAQTNSMVTLGCLVKGYFPEPVTVTWNSGSLSSGVHTFPAVLQSDLYTLSSSVTVPSSTWPSETVTCNVAHPASSTKVDKKIVPRDCGCKPCICEPNEVELVFIFPPKPKDVLTITLTPKVTCVVVDISKDDPEVQFSWFVDDVEVHTAQTQPREEQFNSTFRSVSELPIMHQDWLNGKEFKCRVNSDGFPAYIERTISKTKGRPKAPQVYTIPPPKEQMAKDKVSLTCMITDFFPEDITVEWQWNGQPAENYKNTQPIMDTDGSYFVYSKLNVQKSNWEAGNTFTCSVLHEGLHNHHTEKSLSHSPGK
light: not shown
notes: copies: 2 + 2
